One protein from paper PMC4450660, “Biochemical and Structural Characterization of Enolase from Chloroflexus aurantiacus: Evidence for a Thermophilic Origin” (Frontiers in Bioengineering and Biotechnology, 2015) can be followed below.

One may read the stoichiometry N as the number of molecules, sites or subunits per partner or assembly.

The data set concerns the molecule itself. Briefly: SEC; native molecular weight of purified EnoCa (~92-96 kDa against a ~46 kDa subunit on SDS gel); gel filtration on Sephacryl S-300 (2.5 x 100 cm), 1 ml/min, is a step of the purification; the data are in Figures S1-S3.

B1: enolase-1 from Chloroflexus aurantiacus (enzyme, Chloroflexus aurantiacus strain J.10.fl., UniProt A9WCM4 1-426, looked up)
chain: MSTLIEAIVAREVLDSRGNPTIEVDVRLESGDVGRAIVPSGASTGAHEALELRDGDKSRYNGKGVLKAVQAVNEDIAEALIGFDAADQIALDQELIALDGTPNKSKLGANAILGVSLAAAKAAAAAFGLPLYRYLGGVYAHVLPVPMMNIMNGGQHATNSTDFQEFMIMPVGAESFREGLRWGAEIYHMLKKVIHDRGFSTTVGDEGGFAPSLPTNDAPLQLIMEAIEKAGYRPGEQIVIALDPATTEIFEDGKYHLKREGRSLSSAEMVDYWVDLVNRYPIISLEDGLAEDDWEGWALLRAKLGDRVQLVGDDFLVTNVQRLQRAIEAKAANSILIKLNQIGSLTETLSAIQLAQRSGWTAVVSHRSGESEDVTIADLVVATNAGQIKTGAPARTDRIAKYNQLLRIEEELGSAARYAGRSAFKV
notes: enolase-1 (2-phospho-D-glycerate hydrolyase, EC 4.2.1.11) of Chloroflexus aurantiacus strain J.10.fl., endogenous protein; subunit ~46 kDa by SDS-PAGE; Native protein purified from the organism, no tags; also called EnoCa; EnoCa-1
For the protein B1, the “stoichiometry N” value came out at 2.
